Experimental data reported in IntAct's records for PubMed 22863780.

Molecular target: rcan1_mouse Rcan1 (UniProt Q9JHG6)

Fragile X messenger ribonucleoprotein 1 (Mus musculus) (from UniProt P35922) S499A
effect of a mutation on the interaction: disrupting interaction
